From patent publication US20110250130A1 (AbbVie / Abbott, published 2011) come the findings set out here.

Changes are numbered by the printed parent chain.

Sequences and labels used below:
B1: AB248 (antibody, V domains shown)
VH: EVQLQESGPGLVKPSETLSLTCTVSGFSLSDYGVNWIRQPPGKGLEWIGMIWGDGSTDYDSTLKSRVTISKDTSKNQFSLKLSSVTAADTAVYYCAREWHHGPVAYWGQGTLVTVSS
VL: DIQMTQSPSSLSASVGDRVTITCKASQAVSSAVAWYQQKPGKAPKLLIYWASTRHTGVPSRFSGSGSGTDFTLTISSLQPEDFATYYCQQHYSTPFTFGQGTKLEIK
notes: also called hMAK195VH.1b / hMAK195VL.1
B2: AB260 (antibody, V domains shown)
VH: EVQLVESGGGLVQPGGSLRLSCAASGFTLSDYGVNWVRQAPGKGLEWVSMIWGDGSTDYDSTLKSRFTISKDNSKNTLYLQMNSLRAEDTAVYYCAREWHHGPVAYWGQGTLVTVSS
VL: B1 VL
notes: also called hMAK195VH.2b / hMAK195VL.1
B3: AB250 (antibody, V domains shown)
VH: B1 VH
VL: EIVMTQSPATLSLSPGERATLSCKASQAVSSAVAWYQQKPGQAPRLLIYWASTRHTGIPARFSGSGSGTDFTLTISSLQPEDFAVYYCQQHYSTPFTFGQGTKLEIK
notes: also called hMAK195VH.1b / hMAK195VL.2
B4: AB251 (antibody, V domains shown)
VH: B1 VH
VL: B3 VL with A43S, I58V
notes: also called hMAK195VH.1b / hMAK195VL.2a
B5: AB245 (antibody, V domains shown)
VH: B1 VH with I37V, I48L, V67L, T73N, N76S, F78I
VL: B1 VL with A43S
notes: also called hMAK195VH.1a / hMAK195VL.1a
B6: AB247 (antibody, V domains shown)
VH: B1 VH with I37V, I48L, V67L, T73N, N76S, F78I
VL: B3 VL with A43S, I58V
notes: also called hMAK195VH.1a / hMAK195VL.2a
B7: AB261 (antibody, V domains shown)
VH: B2 VH
VL: B1 VL with A43S
notes: also called hMAK195VH.2b / hMAK195VL.1a
B8: AB256 (antibody, V domains shown)
VH: B2 VH with A24V, V48L, S49G, F67L, N76S, L78I
VL: B1 VL
notes: also called hMAK195VH.2a / hMAK195VL.1
B9: AB249 (antibody, V domains shown)
VH: B1 VH
VL: B1 VL with A43S
notes: also called A3249; hMAK195VH.1b / hMAK195VL.1a
B10: AB257 (antibody, V domains shown)
VH: B2 VH with A24V, V48L, S49G, F67L, N76S, L78I
VL: B1 VL with A43S
notes: also called hMAK195VH.2a / hMAK195VL.1a
B11: AB246 (antibody, V domains shown)
VH: B1 VH with I37V, I48L, V67L, T73N, N76S, F78I
VL: B3 VL
notes: also called hMAK195VH.1a / hMAK195VL.2
B12: AB242 (antibody, V domains shown)
VH: B1 VH with F27G, L29I, K71V
VL: B3 VL
notes: also called hMAK195VH.1 / hMAK195VL.2
B13: AB240 (antibody, V domains shown)
VH: B1 VH with F27G, L29I, K71V
VL: B1 VL
notes: also called hMAK195VH.1 / hMAK195VL.1
B14: AB244 (antibody, V domains shown)
VH: B1 VH with I37V, I48L, V67L, T73N, N76S, F78I
VL: B1 VL
notes: also called hMAK195VH.1a / hMAK195VL.1
B15: AB252 (antibody, V domains shown)
VH: B2 VH with L29F, K71R
VL: B1 VL
notes: also called hMAK195VH.2 / hMAK195VL.1
B16: AB241 (antibody, V domains shown)
VH: B1 VH with F27G, L29I, K71V
VL: B1 VL with A43S
notes: also called hMAK195VH.1 / hMAK195VL.1a
B17: AB243 (antibody, V domains shown)
VH: B1 VH with F27G, L29I, K71V
VL: B3 VL with A43S, I58V
notes: also called hMAK195VH.1 / hMAK195VL.2a
B18: AB253 (antibody, V domains shown)
VH: B2 VH with L29F, K71R
VL: B1 VL with A43S
notes: also called hMAK195VH.2 / hMAK195VL.1a
B19: AB262 (antibody, V domains shown)
VH: B2 VH
VL: B3 VL
notes: also called hMAK195VH.2b / hMAK195VL.2
B20: AB254 (antibody, V domains shown)
VH: B2 VH with L29F, K71R
VL: B3 VL
notes: also called hMAK195VH.2 / hMAK195VL.2
B21: AB255 (antibody, V domains shown)
VH: B2 VH with L29F, K71R
VL: B3 VL with A43S, I58V
notes: also called hMAK195VH.2 / hMAK195VL.2a
B22: AB258 (antibody, V domains shown)
VH: B2 VH with A24V, V48L, S49G, F67L, N76S, L78I
VL: B3 VL
notes: also called hMAK195VH.2a / hMAK195VL.2

T1 sequence (P01375 77-233 limits assumed): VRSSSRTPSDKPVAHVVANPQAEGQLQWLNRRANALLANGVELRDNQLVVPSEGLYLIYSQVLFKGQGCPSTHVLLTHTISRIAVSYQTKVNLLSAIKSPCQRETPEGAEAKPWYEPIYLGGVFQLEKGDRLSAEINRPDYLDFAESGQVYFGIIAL

The first assay has as its target T1, Recombinant Human TNF-α/TNFSF1A (human, UniProt P01375 77-233). Kind of assay: cell-based or functional assay.
In the case of B1, the “TNF-α neutralization assay IC50 (nM), L929 cells” value (“TNF-α neutralization assay IC50” below) stood at 0.213 nM.
For B2, the “TNF-α neutralization assay IC50” value worked out at 0.093 nM.
Consider B3, for which the “TNF-α neutralization assay IC50” value worked out at 0.301 nM.
The same measure, in the same setting: the value for B4 was 0.35 nM; that for B5 was 0.072 nM.
Same read-out and setting: the value for B6 was 0.186 nM; that for B7 was 0.187 nM; that for B8 was 0.058 nM.
Same read-out and setting: the value for B9 was 0.245 nM; that for B10 was 0.077 nM.
For the molecule B11, the “TNF-α neutralization assay IC50” value is 0.099 nM.
Same read-out and setting: the value for B12 was 25.1 nM; that for B13 was 14.2 nM.
Turning to B14, the “TNF-α neutralization assay IC50” value came out at 0.155 nM.
Still for that read-out and setting: the value for B15 was 0.222 nM; that for B16 was 5.33 nM; that for B17 was 50.7 nM.
In the case of B18, the “TNF-α neutralization assay IC50” value came out at 0.279 nM.
On the same count and under the same terms, the value for B19 was 0.218 nM; that for B20 was 0.799 nM.
On to B21, for which the “TNF-α neutralization assay IC50” value was determined as 0.477 nM.
In the case of B22, the “TNF-α neutralization assay IC50” value stood at 0.078 nM.

The target of a further assay is T1, Recombinant Human TNF-α/TNFSF1A. Kind of assay: SPR (Biacore), antibody captured, TNF-α in solution. The method, then:
The BIACORE assay (Biacore, Inc. Piscataway, N.J.) determines the affinity of antibodies with kinetic measurements of on-rate and off-rate constants. Binding of antibodies to a target antigen (for example, a purified recombinant target antigen) is determined by surface plasmon resonance-based measurements with a Biacore® 1000 or 3000 instrument (Biacore® AB, Uppsala, Sweden) using running HBS-EP (10 mM HEPES [pH 7.4], 150 mM NaCl, 3 mM EDTA, and 0.005% surfactant P20) at 25° C. All chemicals are obtained from Biacore® AB (Uppsala, Sweden) or otherwise from a different source as described in the text. For example, approximately 5000 RU of goat anti-mouse IgG, (Fcγ), fragment specific polyclonal antibody (Pierce Biotechnology Inc, Rockford, Ill., US) diluted in 10 mM sodium acetate (pH 4.5) is directly immobilized across a CM5 research grade biosensor chip using a standard amine coupling kit according to manufacturer's instructions and procedures at 25 μg/ml. Unreacted moieties on the biosensor surface are blocked with ethanolamine. Modified carboxymethyl dextran surface in flowcell 2 and 4 is used as a reaction surface. Unmodified carboxymethyl dextran without goat anti-mouse IgG in flow cell 1 and 3 is used as the reference surface. For kinetic analysis, rate equations derived from the 1:1 Langmuir binding model are fitted simultaneously to association and dissociation phases of all eight injections (using global fit analysis) with the use of Biaevaluation 4.0.1 software. Purified antibodies are diluted in HEPES-buffered saline for capture across goat anti-mouse IgG specific reaction surfaces. Antibodies to be captured as a ligand (25 μg/ml) are injected over reaction matrices at a flow rate of 5 μl/minute. The association and dissociation rate constants, kₒₙ (M⁻¹s⁻¹) and koff (s⁻¹), are determined under a continuous flow rate of 25 μl/minute. Rate constants are derived by making kinetic binding measurements at different antigen concentrations ranging from 10-200 nM. The equilibrium dissociation constant (M) of the reaction between antibodies and the target antigen is then calculated from the kinetic rate constants by the following formula: KD=koff/kₒₙ. Binding is recorded as a function of time and kinetic rate constants are calculated. In this assay, on-rates as fast as 10⁶ M⁻¹s⁻¹ and off-rates as slow as 10⁻⁶ s⁻¹ can be measured.
With B1, the Kd (usually the equilibrium constant for the complex coming apart) amounted to 0.174 nM; the koff (commonly the rate constant with which the complex falls apart) was found to be 0.000316 s⁻¹; the on-rate constant (kon) – broadly, the rate constant with which the complex forms – worked out at 1.82e+06 M⁻¹ s⁻¹.
Taken in the same sequence, the figures for B2 were 0.101 nM, 0.00023 s⁻¹ and 2.27e+06 M⁻¹ s⁻¹.
Regarding B3, the Kd amounted to 0.179 nM, the off-rate constant (koff) was found to be 0.000356 s⁻¹ and the on-rate (kon) was found to be 2e+06 M⁻¹ s⁻¹.
For the molecule B4, the Kd is 0.25 nM, the koff came out at 0.000425 s⁻¹ and the on-rate constant (kon) is 1.71e+06 M⁻¹ s⁻¹.
Taken in the same sequence, the figures for B5 were 0.0994 nM, 0.00033 s⁻¹ and 3.32e+06 M⁻¹ s⁻¹.
In the case of B6, the Kd was 0.0996 nM, the koff was 0.00026 s⁻¹ and the kon was determined as 2.62e+06 M⁻¹ s⁻¹.
Consider B7, for which the Kd came to 0.122 nM, the dissociation rate constant (koff) was found to be 0.000285 s⁻¹ and the kon stood at 2.36e+06 M⁻¹ s⁻¹.
For the molecule B8, the dissociation constant Kd was found to be 0.0505 nM, the koff was determined as 0.000177 s⁻¹ and the kon came to 3.54e+06 M⁻¹ s⁻¹.
In the case of B9, the dissociation constant Kd is 0.156 nM, the koff worked out at 0.000315 s⁻¹ and the association rate constant (kon) is 2.04e+06 M⁻¹ s⁻¹.
Regarding B10, the dissociation constant (Kd) was 0.062 nM, the dissociation rate constant (koff) was 0.000217 s⁻¹ and the association rate constant (kon) came out at 3.56e+06 M⁻¹ s⁻¹.
As to B11, the Kd was found to be 0.0458 nM, the dissociation rate constant (koff) was found to be 0.000119 s⁻¹ and the on-rate (kon) is 2.61e+06 M⁻¹ s⁻¹.
With B12, the Kd worked out at 0.796 nM, the off-rate constant (koff) was found to be 0.00142 s⁻¹ and the kon was found to be 1.79e+06 M⁻¹ s⁻¹.
Taken in the same sequence, the figures for B13 were 1.4 nM, 0.00228 s⁻¹ and 1.64e+06 M⁻¹ s⁻¹.
B14: the Kd is 0.0891 nM, the koff is 0.000335 s⁻¹ and the on-rate (kon) turned out to be 3.8e+06 M⁻¹ s⁻¹.
Taken in the same sequence, the figures for B15 were 0.0866 nM, 0.000252 s⁻¹ and 2.92e+06 M⁻¹ s⁻¹.
With B16, the dissociation constant (Kd) was 0.573 nM, the koff amounted to 0.0013 s⁻¹ and the kon came to 2.27e+06 M⁻¹ s⁻¹.
Taken in the same sequence, the figures for B17 were 1.62 nM, 0.0027 s⁻¹ and 1.72e+06 M⁻¹ s⁻¹.
The matching figures for B18: 0.0733 nM, 0.000221 s⁻¹ and 3.02e+06 M⁻¹ s⁻¹.
As to B19, the Kd is 0.136 nM, the koff was 0.00029 s⁻¹ and the kon was 2.14e+06 M⁻¹ s⁻¹.
The matching figures for B20: 0.12 nM, 0.000287 s⁻¹ and 2.4e+06 M⁻¹ s⁻¹.
As to B21, the Kd stood at 0.148 nM, the dissociation rate constant (koff) is 0.000384 s⁻¹ and the kon stood at 2.62e+06 M⁻¹ s⁻¹.
Taken in the same sequence, the figures for B22 were 0.0816 nM, 0.000244 s⁻¹ and 3.04e+06 M⁻¹ s⁻¹.
